Measured values taken from patent US20080181901A1.

Target: endogenous Na,K-ATPase of tsA201 cells
Experiment: cell-based or functional assay

## full-length MONaKA transfected into tsA201 cells (86Rb+ uptake assay)
  decrease in endogenous ouabain-sensitive 86Rb+ uptake into intact tsA201 cells: 19%
